Results on 4 substances are retold here after publication PMC6345845.

The target in one assay is 14-3-3 (UniProt P63104). The assay can be described thus: AUC; sedimentation velocity, SEC buffer, 20 °C, 42 000 rpm; 14-3-3 + P-PI4KB + Rab11; stoichiometries independent of Rab11 nucleotide state.
In assay [1] the target is phosphorylated PI4KB (residues 128-799, internal deletion 423-522, T292R, phosphorylated at S294 by PKA) (human) (UniProt Q9UBF8). The assay is described as above.
In the next assay the target is PI4KB (Homo sapiens) (UniProt Q9UBF8). The settings on record: cited from earlier work.
Sequence of PI4KB (Homo sapiens) (Q9UBF8 2-816): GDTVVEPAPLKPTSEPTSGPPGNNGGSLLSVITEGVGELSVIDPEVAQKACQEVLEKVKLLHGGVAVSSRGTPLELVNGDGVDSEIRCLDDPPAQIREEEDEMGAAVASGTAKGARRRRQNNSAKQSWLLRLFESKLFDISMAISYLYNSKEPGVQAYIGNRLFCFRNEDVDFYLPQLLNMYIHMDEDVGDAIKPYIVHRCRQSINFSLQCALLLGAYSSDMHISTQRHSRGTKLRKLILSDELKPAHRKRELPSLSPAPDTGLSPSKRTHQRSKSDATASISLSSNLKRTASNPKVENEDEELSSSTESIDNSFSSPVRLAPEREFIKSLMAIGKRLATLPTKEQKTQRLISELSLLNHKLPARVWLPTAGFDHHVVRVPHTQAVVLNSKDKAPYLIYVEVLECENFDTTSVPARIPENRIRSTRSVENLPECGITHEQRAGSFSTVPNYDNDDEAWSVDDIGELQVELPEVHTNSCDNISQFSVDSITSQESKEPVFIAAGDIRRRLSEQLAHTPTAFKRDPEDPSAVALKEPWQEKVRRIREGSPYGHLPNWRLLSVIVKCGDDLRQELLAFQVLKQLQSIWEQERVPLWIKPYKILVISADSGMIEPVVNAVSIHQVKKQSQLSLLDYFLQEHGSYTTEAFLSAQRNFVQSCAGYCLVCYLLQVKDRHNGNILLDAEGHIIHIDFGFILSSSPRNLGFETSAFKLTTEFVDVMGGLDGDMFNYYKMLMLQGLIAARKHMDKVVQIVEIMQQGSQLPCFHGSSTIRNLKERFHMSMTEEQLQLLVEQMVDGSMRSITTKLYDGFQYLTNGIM
Assay [2] has as its target phosphorylated PI4KB (residues 128-799, internal deletion 423-522, T292R, phosphorylated at S294 by PKA) (human) (UniProt Q9UBF8). In words: AUC; sedimentation velocity, SEC buffer, 20 °C, 42 000 rpm; P-PI4KB alone (20 µM) and with Rab11; stoichiometries independent of Rab11 nucleotide state.
Assay [3] concerns the target pseudo-wt PI4KB labeled with Atto488 (human) (UniProt Q9UBF8). In words: fluorescence cross-correlation spectroscopy (FCCS); on GUV membrane; Atto488-PI4KB attached by tethered ACBD3; mCherry-Rab11-His tethered to the membrane via His tag; proteins approximately 50 nM.

Sequence of phosphorylated PI4KB (residues 128-799, internal deletion 423-522, T292R, phosphorylated at S294 by PKA) (human) (Q9UBF8 other isoform, or with tags, fused parts or gaps with the stated changes): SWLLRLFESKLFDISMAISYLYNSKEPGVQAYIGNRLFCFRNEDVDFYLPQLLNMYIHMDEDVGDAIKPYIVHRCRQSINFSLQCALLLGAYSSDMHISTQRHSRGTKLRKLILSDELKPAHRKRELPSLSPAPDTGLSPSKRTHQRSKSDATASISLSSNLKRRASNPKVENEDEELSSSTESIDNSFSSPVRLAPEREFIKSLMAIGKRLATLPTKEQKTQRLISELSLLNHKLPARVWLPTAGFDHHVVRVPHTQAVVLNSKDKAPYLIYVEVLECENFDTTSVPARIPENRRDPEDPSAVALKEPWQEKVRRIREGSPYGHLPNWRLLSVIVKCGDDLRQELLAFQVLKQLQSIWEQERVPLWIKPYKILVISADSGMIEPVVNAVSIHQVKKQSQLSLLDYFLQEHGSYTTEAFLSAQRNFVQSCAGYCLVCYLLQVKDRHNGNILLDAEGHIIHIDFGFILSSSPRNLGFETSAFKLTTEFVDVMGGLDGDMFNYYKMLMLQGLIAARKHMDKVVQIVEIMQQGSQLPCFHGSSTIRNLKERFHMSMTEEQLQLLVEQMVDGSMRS
Sequence of pseudo-wt PI4KB labeled with Atto488 (human) (Q9UBF8 other isoform, or with tags, fused parts or gaps): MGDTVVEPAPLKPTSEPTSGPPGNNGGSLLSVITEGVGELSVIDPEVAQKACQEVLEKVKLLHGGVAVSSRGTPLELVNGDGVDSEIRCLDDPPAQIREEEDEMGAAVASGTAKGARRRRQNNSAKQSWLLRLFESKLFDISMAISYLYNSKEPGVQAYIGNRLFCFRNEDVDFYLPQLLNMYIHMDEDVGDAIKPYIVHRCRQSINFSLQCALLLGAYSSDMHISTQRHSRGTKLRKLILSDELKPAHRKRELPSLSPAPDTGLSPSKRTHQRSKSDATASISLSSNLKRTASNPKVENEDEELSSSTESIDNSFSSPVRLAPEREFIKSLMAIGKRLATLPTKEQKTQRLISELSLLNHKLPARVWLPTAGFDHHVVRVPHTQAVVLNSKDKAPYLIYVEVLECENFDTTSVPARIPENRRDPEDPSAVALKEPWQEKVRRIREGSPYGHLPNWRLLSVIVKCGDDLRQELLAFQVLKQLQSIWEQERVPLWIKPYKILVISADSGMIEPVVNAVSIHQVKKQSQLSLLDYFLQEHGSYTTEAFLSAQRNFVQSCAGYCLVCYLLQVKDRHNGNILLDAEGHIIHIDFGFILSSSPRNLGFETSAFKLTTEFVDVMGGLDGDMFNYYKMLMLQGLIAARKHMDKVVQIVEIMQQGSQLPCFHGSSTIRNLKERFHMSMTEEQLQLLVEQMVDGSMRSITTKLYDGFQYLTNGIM
Sequence of ACBD3 (Q9H3P7 whole entry): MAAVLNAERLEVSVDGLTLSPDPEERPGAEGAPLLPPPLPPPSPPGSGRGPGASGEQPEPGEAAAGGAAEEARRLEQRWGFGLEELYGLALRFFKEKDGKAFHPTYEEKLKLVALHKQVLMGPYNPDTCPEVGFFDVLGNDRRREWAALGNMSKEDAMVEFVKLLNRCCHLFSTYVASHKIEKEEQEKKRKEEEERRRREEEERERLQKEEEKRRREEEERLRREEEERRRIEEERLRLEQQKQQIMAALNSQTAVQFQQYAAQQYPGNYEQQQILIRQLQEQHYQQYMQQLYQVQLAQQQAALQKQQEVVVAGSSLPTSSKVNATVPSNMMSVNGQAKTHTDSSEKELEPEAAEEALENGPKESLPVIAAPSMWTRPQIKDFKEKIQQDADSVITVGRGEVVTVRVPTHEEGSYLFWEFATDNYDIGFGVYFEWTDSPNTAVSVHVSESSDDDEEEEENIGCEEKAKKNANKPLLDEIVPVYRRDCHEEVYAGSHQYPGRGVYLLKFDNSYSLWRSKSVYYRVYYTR

One may read the stoichiometry N as a count of units in the complex or per binding partner. Regarding “14-3-3 (from UniProt P63104 1-230) (natural protein)”, the stoichiometry N in the assay with 14-3-3 is 2. The stoichiometry N (14-3-3 chains per PI4KB) in assay [1] turned out to be 2.

The term Kd denotes the free concentration of one partner at which half of the binding sites on the other are occupied at equilibrium, for simple one-to-one binding. On to ACBD3 (from UniProt Q9H3P7), for which, in the assay with PI4KB (Homo sapiens), the Kd was 300 nM.

As for “Rab11 (from UniProt P62491 1-216) (natural protein)”, the stoichiometry N in assay [2] and in assay [1] was 1 throughout.

“mCherry-Rab11-His (membrane tethered) (from UniProt P62491 1-216) (natural protein)” displayed a percent of Rab11 in the complex in assay [3] of 10%.
